Biological target: fibrinogen γ-chain C-terminal residues 390-411 fused to GST
Assay: ELISA; ligand (γC390-411 or γC151-411) coated, soluble αIIbβ3 (1 µg/mL) pre-incubated with chemokine (CCL5, CXCL12 or CX3CL1) for 10 min, then 1 h at room temperature in HEPES-Tyrodes buffer with 1 mM CaCl2

fold binding to γC390-411 with CCL5 (50 µg/mL, 1 mM Ca2+) over 1 mM Mn2+ alone: 4.5 fold
fold binding to γC390-411 with CXCL12 (50 µg/mL, 1 mM Ca2+) over 1 mM Mn2+ alone: 3.5 fold
Substance: soluble recombinant integrin αIIbβ3 (from UniProt P08514 32-1039; P05106 27-718) (complex)

From publication PMC9563052
